{"source": "patent US20200297842A1", "about": "(published 2020)", "binders": {"B1": {"name": "SIRP10 (antibody, V domains shown)", "VH": "EVQLQESGAELVRPGTSVKMSCKAAGYTFSNYLIGWIKQRPGHGLEWIGDIYPGDNNTNYNEKFRVKATLTADTSSNTAYMHLTSLTSEDSAIYYCAGGTDYDGFANWGQGTLVTVSA", "VL": "ENVLTQSPAIMSASLGEKVTMSCRASSSVNYMYWYQQKSDASPKLWIYYTSKLAPGVPARFSGSGSGNSYSLTISSMEGEDAATYYCQQFTSSPFTFGSGTKLEIK"}, "B2": {"name": "SIRP11 (antibody, human IgG4 S228P, kappa, V domains shown)", "VH": "QVQLVQSGAEVKKPGASVKVSCKASGYSFTDYFLNWVRQAPGQGLEWMGRINPYNGDSFINQNFRDRVTMTRDTSTSTVYMELSSLRSEDTAVYYCARGGYDGYFIAYFDYWGAGTTVTVSS", "VL": "DIQMTQSPSSLSASVGDRVTITCKASQDINSHLSWYQQKPGKAPKLLIYRANRLATGVPSRFSGSGSGTDFTFTISSLQPEDIATYYCLQYDEFPYTFGGGTKLEIKR", "notes": "shares the heavy-chain CDRs of SIRP4"}, "B3": {"name": "SIRP12 (antibody, human IgG4 S228P, kappa, V domains shown)", "VH": "B2 VH", "VL": "B2 VL with Q79E, P80Y"}, "B4": {"name": "SIRP13 (antibody, human IgG4 S228P, kappa, V domains shown)", "VH": "B2 VH", "VL": "B2 VL with L89Q"}, "B5": {"name": "SIRP14 (antibody, human IgG4 S228P, kappa, V domains shown)", "VH": "B2 VH with A16S, M70I, R72A, T74K, V79A", "VL": "B2 VL"}, "B6": {"name": "SIRP15 (antibody, human IgG4 S228P, kappa, V domains shown)", "VH": "B2 VH with A16S, M70I, R72A, T74K, V79A", "VL": "B2 VL with Q79E, P80Y"}, "B7": {"name": "SIRP16 (antibody, human IgG4 S228P, kappa, V domains shown)", "VH": "B2 VH with A16S, M70I, R72A, T74K, V79A", "VL": "B2 VL with L89Q"}, "B8": {"name": "SIRP20 (antibody, human IgG4 S228P, kappa, V domains shown)", "VH": "B2 VH with R72V", "VL": "B2 VL"}, "B9": {"name": "SIRP21 (antibody, human IgG4 S228P, kappa, V domains shown)", "VH": "B2 VH with R72V", "VL": "B2 VL with Q79E, P80Y"}, "B10": {"name": "SIRP22 (antibody, human IgG4 S228P, kappa, V domains shown)", "VH": "B2 VH with R72V", "VL": "B2 VL with L89Q"}, "B11": {"name": "SIRP17 (antibody, human IgG4 S228P, kappa, V domains shown)", "VH": "EVQLVQSGAEVKKPGESLKISCKGSGYSFTDYFLNWVRQMPGKGLEWMGRINPYNGDSFINQNFRDQVTISADKSISTAYLQWSSLKASDTAMYYCARGGYDGYFIAYFDYWGAGTTVTVSS", "VL": "B2 VL"}, "B12": {"name": "SIRP18 (antibody, human IgG4 S228P, kappa, V domains shown)", "VH": "B11 VH", "VL": "B2 VL with Q79E, P80Y"}, "B13": {"name": "SIRP19 (antibody, human IgG4 S228P, kappa, V domains shown)", "VH": "B11 VH", "VL": "B2 VL with L89Q"}, "B14": {"name": "SIRP23 (antibody, human IgG4 S228P, kappa, V domains shown)", "VH": "EVQLQQSGPDLVKPGASVKISCKASGYSFTDYFLNWVKQSHGKSLEWIGRINPYNGDSFINQNFRDKATLTVDKSSTTAHMDLLSLTSEDSAIYYCGRGGYDGYFIAYFDYWGQGSLVTVSA", "VL": "DIKMTQSPSSMYASLGQRVTITCKASQDINSHLSWFQEKPGKSPKTLIYRANRLADGVPSRFSGSGSGQDYFLTISSLEYEDVGIYYCLQYDEFPYTFGGGTKLEIKR"}, "B15": {"name": "SIRP6 (antibody, V domains shown)", "VH": "QIQLVQSGPELKKPGETVKISCKASGYTFTDYGVNWVKQGPGKDLQWMGWVNTNTRESTYVEDFKGRFAFSLETSASTAYLQINNLKNEDSSTYFCARGAYDAYYYYYGMDYWGQGTSVTVSS", "VL": "DIQMTQSPASLSASVGETVTITCRASENIYSYLTWYKQKQGKSPQLLVYNAKTLAEGVPSRFSGSGSGTQFSLKINSLQPEDFGSYYCQHHYGSPRTFGGGTKLEIK"}, "B16": {"name": "SIRP8 (antibody, V domains shown)", "VH": "EVQLQESGGGLVKPGGSLKLSCAASGFTLSTYTMSWVRQTPEKRLEWVAIITSGDTYTYYPDSVKGRFTISRDNAKNTLYLQMSSLKSEDTGMYYCTRDRPLFHWGQGTTLTVST", "VL": "QIVLTQSPAIMSASPGEKVTMTCSASSSVSYMYWYQQKPGSSPRLLIYDTSNLASGVPVRFSGSGSGTSYSLTISRMEAEDAATYYCQQWSSFPWTFGGGTKLEIK"}}, "key": {"[1]": {"molecular_target": "T1, Fc tagged human SIRPα (ACRO # SIG-H5251, genotype variant 1) (human, UniProt P78324 31-370, limits assumed)", "T1 construct": "Bought protein; also called Fc tagged human SIRP alpha; recombinant human SIRPα; not shown: Fc tag", "T1 sequence (P78324 31-370 limits assumed, change not shown, form in doubt)": "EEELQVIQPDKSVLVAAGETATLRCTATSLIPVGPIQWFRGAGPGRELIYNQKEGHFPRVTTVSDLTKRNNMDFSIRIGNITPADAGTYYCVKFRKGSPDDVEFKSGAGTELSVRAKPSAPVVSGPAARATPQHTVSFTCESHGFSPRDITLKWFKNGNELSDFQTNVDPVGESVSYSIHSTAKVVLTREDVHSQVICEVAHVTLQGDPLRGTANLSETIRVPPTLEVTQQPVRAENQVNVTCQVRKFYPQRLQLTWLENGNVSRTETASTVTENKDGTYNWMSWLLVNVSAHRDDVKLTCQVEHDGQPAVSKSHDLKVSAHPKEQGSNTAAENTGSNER", "test": "ELISA, plate-coated Fc tagged human SIRPα; apparent Kd", "description": "The binding of anti-SIRP monoclonal antibodies (mAbs) of the present disclosure to SIRP alpha (SIRPα) was determined by solid phase ELISA using an Fc tagged human SIRP alpha. Binding by soluble anti-SIRP antibodies was measured in vitro.\nFc tagged human SIRPα (ACRO # SIG-H5251, genotype variant 1) is adsorbed to high-binding microtiter plates at a concentration of 1 μg/ml diluted in phosphate buffered saline (PBS) overnight at 4° C. The coating solution is removed, the wells are washed and then blocked with 75% casein in PBS containing 0.5% Tween 20 (PBST) for 60 minutes at room temperature while shaking. Blocking solution is removed, the wells are washed and incubated for 60 minutes at room temperature while shaking with either murine or human anti-SIRP mAbs diluted in PBST at a starting concentration of 30 μg/ml and reducing the concentration in 3-fold serial dilutions. Wells are washed three times with PBST and incubated for 60 minutes at room temperature while shaking with an HRP-labeled donkey anti-mouse or anti-human secondary antibody (Jackson ImmunoResearch Laboratories) diluted 1:10,000 in PBST. The wells are washed and then incubated with peroxidase substrate and the absorbance at 450 nm measured. The apparent affinities were calculated using a non-linear fit model (GraphPad Prism)."}, "[2]": {"molecular_target": "T2, Fc tagged human SIRPγ (ACRO # SIG-H5253) (human, UniProt Q9P1W8 29-360)", "T2 construct": "Bought protein; it includes the transmembrane and cytoplasmic part, which a soluble Fc fusion would not carry; also called Fc tagged human SIRP gamma; recombinant human SIRP gamma; not shown: Fc tag", "T2 sequence (Q9P1W8 29-360 limits assumed)": "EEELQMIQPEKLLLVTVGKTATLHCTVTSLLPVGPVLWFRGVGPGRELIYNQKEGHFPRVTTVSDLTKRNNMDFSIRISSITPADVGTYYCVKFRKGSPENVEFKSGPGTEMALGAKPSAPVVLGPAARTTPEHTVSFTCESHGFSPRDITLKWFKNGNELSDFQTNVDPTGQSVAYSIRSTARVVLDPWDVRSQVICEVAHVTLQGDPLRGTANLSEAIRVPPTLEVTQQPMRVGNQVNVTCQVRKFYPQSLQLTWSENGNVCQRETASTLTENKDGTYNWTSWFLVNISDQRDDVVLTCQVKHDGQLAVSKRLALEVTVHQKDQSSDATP", "test": "ELISA, plate-coated Fc tagged human SIRPγ; apparent Kd", "description": "The binding of anti-SIRP antibodies of the present disclosure to SIRP gamma (SIRPγ) was determined by ELISA using an Fc tagged human SIRPγ. Binding by soluble anti-SIRP antibodies was measured in vitro.\n(§1) Fc tagged human SIRPγ (ACRO # SIG-H5253) is adsorbed to high-binding microtiter plates at a concentration of 1 μg/ml in phosphate buffered saline (PBS) overnight at 4° C. The coating solution is removed, the wells are washed and then blocked with 75% casein in PBS containing 0.5% Tween 20 (PBST) for 60 minutes at room temperature while shaking. Blocking solution is removed, the wells are washed and incubated for 60 minutes at room temperature while shaking with anti-SIRP mAbs diluted in PBST at a starting concentration of 30 μg/ml and reducing the concentration in 3-fold serial dilutions. Wells are washed three times with PBST and incubated for 60 minutes at room temperature while shaking with an HRP labeled donkey anti-mouse or anti-human secondary antibody (Jackson ImmonResearch Laboratories) diluted 1:10,000 in PBST. The wells are washed and then incubated with peroxidase substrate and the absorbance at 450 nm determined. The apparent affinities were calculated using a non-linear fit model (GraphPad Prism)."}, "[3]": {"molecular_target": "T2, Fc tagged human SIRPγ (ACRO # SIG-H5253)", "test": "ELISA, plate-coated Fc tagged human SIRPγ", "description": "as §1"}, "[4]": {"molecular_target": "T2, Fc tagged human SIRPγ (ACRO # SIG-H5253)", "test": "blocking ELISA: mAb with human SIRPγ (ACRO # SIG-H5253) on plate-coated HIS tagged human CD47", "description": "HIS tagged human CD47 (ACRO # CD7-H5227) is adsorbed to high-binding microtiter plates at a concentration of 2 μg/ml diluted in PBS overnight at 4° C. The coating solution is removed, the wells are washed and then blocked with 75% casein in PBS containing 0.5% Tween 20 (PBST) for 60 minutes at room temperature while shaking. Blocking solution is removed, the wells are washed and incubated for 60 minutes at room temperature while shaking with anti-SIRP mAbs diluted in PBST at a starting concentration of 30 μg/ml and reducing the concentration in 3 fold serial dilutions and 0.5 μg/ml of human SIRPγ (ACRO # SIG-H5253). Wells are washed three times with PBST and incubated for 60 minutes at room temperature while shaking with an HRP labeled donkey anti-mouse or anti-human secondary antibody (Jackson ImmunoResearch Laboratories) diluted 1:20,000 in PBST. The wells are washed and then incubated with peroxidase substrate and the absorbance at 450 nm determined. The IC₅₀ was calculated using a non-linear fit model (GraphPad Prism)."}}, "note": "Substitutions are numbered along the chain they refer to.", "data": [{"binder": "B1", "values": [{"measurement": "Kd", "setting": "[1]", "value": "> 10", "unit": "nM"}, {"measurement": "Kd", "setting": "[2]", "value": "> 10", "unit": "nM"}]}, {"binder": "B2", "values": [{"measurement": "Kd", "setting": "[1]", "value": 0.194, "unit": "nM"}, {"measurement": "Kd", "setting": "[2]", "value": 7.22, "unit": "nM"}]}, {"binder": "B3", "values": [{"measurement": "Kd", "setting": "[1]", "value": 0.165, "unit": "nM"}, {"measurement": "Kd", "setting": "[2]", "value": "> 12", "unit": "nM"}]}, {"binder": "B4", "values": [{"measurement": "binding result", "setting": "[3]", "value": "no binding (tested: 30 µg/ml)"}, {"measurement": "Kd", "setting": "[1]", "value": 1.56, "unit": "nM"}]}, {"binder": "B5", "values": [{"measurement": "binding result", "setting": "[3]", "value": "no binding (tested: 30 µg/ml)"}, {"measurement": "Kd", "setting": "[1]", "value": 0.565, "unit": "nM"}]}, {"binder": "B6", "values": [{"measurement": "Kd", "setting": "[1]", "value": 0.608, "unit": "nM"}, {"measurement": "Kd", "setting": "[2]", "value": "> 14", "unit": "nM"}]}, {"binder": "B7", "values": [{"measurement": "Kd", "setting": "[1]", "value": "> 40", "unit": "nM"}]}, {"binder": "B8", "values": [{"measurement": "Kd", "setting": "[1]", "value": 0.157, "unit": "nM"}, {"measurement": "Kd", "setting": "[2]", "value": "> 29", "unit": "nM"}]}, {"binder": "B9", "values": [{"measurement": "Kd", "setting": "[1]", "value": 0.274, "unit": "nM"}, {"measurement": "Kd", "setting": "[2]", "value": "> 21", "unit": "nM"}]}, {"binder": "B10", "values": [{"measurement": "binding result", "setting": "[3]", "value": "no binding (tested: 30 µg/ml)"}, {"measurement": "Kd", "setting": "[1]", "value": "> 11", "unit": "nM"}]}, {"binder": "B11", "values": [{"measurement": "Kd", "setting": "[1]", "value": 0.326, "unit": "nM"}, {"measurement": "Kd", "setting": "[2]", "value": "> 15", "unit": "nM"}]}, {"binder": "B12", "values": [{"measurement": "Kd", "setting": "[1]", "value": 0.364, "unit": "nM"}, {"measurement": "Kd", "setting": "[2]", "value": "> 34", "unit": "nM"}]}, {"binder": "B13", "values": [{"measurement": "binding result", "setting": "[3]", "value": "no binding (tested: 30 µg/ml)"}, {"measurement": "Kd", "setting": "[1]", "value": "> 19", "unit": "nM"}]}, {"binder": "B14", "values": [{"measurement": "Kd", "setting": "[1]", "value": 0.164, "unit": "nM"}, {"measurement": "Kd", "setting": "[2]", "value": 0.225, "unit": "nM"}]}, {"binder": "B15", "values": [{"measurement": "Kd", "setting": "[1]", "value": 0.131, "unit": "nM"}, {"measurement": "Kd", "setting": "[2]", "value": 0.183, "unit": "nM"}, {"measurement": "IC50", "setting": "[4]", "value": 0.86, "unit": "nM"}]}, {"binder": "B16", "values": [{"measurement": "binding result", "setting": "[3]", "value": "no binding (tested: 30 µg/ml)"}, {"measurement": "Kd", "setting": "[1]", "value": 0.057, "unit": "nM"}]}]}
